Laboratory results from paper PMC3914216.

B1: ATs10 (dsDNA)
DNA 1: GGGTTTTTTTTTTCGCGGCGGCCCCGCG
DNA 2: CGCGGGGCCGCCGCGAAAAAAAAAACCC
modifications: phosphorothioate linkages after each of the 10 T (T4-T13) of strand 1; complement unmodified
B2: ATf10 (dsDNA)
DNA 1: CGCGGGGCCGCCGCGAAAAAAAAAAACCC
DNA 2: GGGTTTTTTTTTTTCGCGGCGGCCCCGCG
B3: CG10 (dsDNA)
DNA 1: GGGCCCCCCCCCCCGCGGCGGCCCCGCG
DNA 2: CGCGGGGCCGCCGCGGGGGGGGGGGCCC
B4: Mix10 (dsDNA)
DNA 1: GGGCGTGACTGAGCGCGGCGGCCCCGCG
DNA 2: CGCGGGGCCGCCGCGCTCAGTCACGCCC

Experiments:
HMGA1b [1] = target: T1, HMGA1b (UniProt P17096-2 1-96); assay: competition
HMGA1b [2] = target: T1, HMGA1b; assay: EMSA
HMGA1b [3] = target: T1, HMGA1b; assay: competition; remark: listed apart in the source

Row | Binder | binding result (HMGA1b [3]) | also measured
1 | B1 | – | binding signal (HMGA1b [1]): ~1 ratio to ATf10
2 | B2 | – | binding result (HMGA1b [2]): binds
3 | B3 | no binding | –
4 | B4 | no binding | –
